Reference: the supplement of paper PMC10567573

B1: TRIM15 (parent)
chain: LSQMGAQSSGKILLCPLCQEEEQA

Variants of: B1
Assay: protein stability index of a GFP-peptide fusion (GPS, HEK-293T) (PSI 1-6); higher = more stable
Conditions: c terminus: a fixed tail appended
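Note: lentivirally expressed fusions sorted by FACS into six bins by GFP to DsRed ratio, PSI derived from sequencing read proportions per bin multiplied by bin number.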

Q: Which protein stability index does the source give for LSQMGAQSSGKILLCPLCQTEEQA here?
A: 3.19

Q: Which protein stability index does the source give for LSQMGCQSSGKILLCPLCQEEEQA here?
A: 3.37

Q: Which protein stability index does the source give for LSQMGHQSSGKILLCPLCQEEEQA here?
A: 4.33

Q: For LSQMGYQSSGKILLCPLCQEEEQA, which protein stability index is on record?
A: 3.29

Q: With LSQMGGQSSGKILLCPLCQEEEQA as the variant, how does the protein stability index read?
A: 3.47

Q: Which protein stability index does the source give for LSQMGAQSLGKILLCPLCQEEEQA here?
A: 3.4

Q: Which protein stability index does the source give for LSQMGAQSIGKILLCPLCQEEEQA here?
A: 3

Q: For LSQMGAQSMGKILLCPLCQEEEQA, which protein stability index is on record?
A: 2.57

Q: Which protein stability index does the source give for LSQMGAQSPGKILLCPLCQEEEQA here?
A: 3.49

Q: For LSQMGAQSWGKILLCPLCQEEEQA, which protein stability index is on record?
A: 2.96

Q: With LSQMGAQSFGKILLCPLCQEEEQA as the variant, how does the protein stability index read?
A: 2.36

Q: Which protein stability index does the source give for LSQMGAQSRGKILLCPLCQEEEQA here?
A: 2.99

Q: Which protein stability index does the source give for LSQMGAQSEGKILLCPLCQEEEQA here?
A: 2.93

Q: Which protein stability index does the source give for LSQMGAQSGGKILLCPLCQEEEQA here?
A: 2.64

Q: With LSQMGAQSTGKILLCPLCQEEEQA as the variant, how does the protein stability index read?
A: 3.8

Q: Which protein stability index does the source give for LSQMGAQSCGKILLCPLCQEEEQA here?
A: 3.86

Q: For LSQMGAQQSGKILLCPLCQEEEQA, which protein stability index is on record?
A: 3.27

Q: Which protein stability index does the source give for LSQMGAQDSGKILLCPLCQEEEQA here?
A: 3.98

Q: Which protein stability index does the source give for LSQMGAQKSGKILLCPLCQEEEQA here?
A: 3.4

Q: Which protein stability index does the source give for LSQMGAQHSGKILLCPLCQEEEQA here?
A: 3.82

Q: With LSQMGAQTSGKILLCPLCQEEEQA as the variant, how does the protein stability index read?
A: 3.55

Q: With LSQMGAQASGKILLCPLCQEEEQA as the variant, how does the protein stability index read?
A: 4.01

Q: Which protein stability index does the source give for LSQMGAQYSGKILLCPLCQEEEQA here?
A: 3.49

Q: With LSQMGAQRSGKILLCPLCQEEEQA as the variant, how does the protein stability index read?
A: 3.89

Q: With LSQMGAQPSGKILLCPLCQEEEQA as the variant, how does the protein stability index read?
A: 3.73

Q: For LSQMYAQSSGKILLCPLCQEEEQA, which protein stability index is on record?
A: 2.9

Q: With LSQMSAQSSGKILLCPLCQEEEQA as the variant, how does the protein stability index read?
A: 3.05

Q: Which protein stability index does the source give for LSQMMAQSSGKILLCPLCQEEEQA here?
A: 2.95

Q: With LSQMFAQSSGKILLCPLCQEEEQA as the variant, how does the protein stability index read?
A: 3.22

Q: For LSQMIAQSSGKILLCPLCQEEEQA, which protein stability index is on record?
A: 2.98

Q: Which protein stability index does the source give for LSQMQAQSSGKILLCPLCQEEEQA here?
A: 3.92

Q: With LSQMNAQSSGKILLCPLCQEEEQA as the variant, how does the protein stability index read?
A: 3.39

Q: Which protein stability index does the source give for LSQMAAQSSGKILLCPLCQEEEQA here?
A: 3.49

Q: Which protein stability index does the source give for LSQMHAQSSGKILLCPLCQEEEQA here?
A: 3.14

Q: For DSQMGAQSSGKILLCPLCQEEEQA, which protein stability index is on record?
A: 4.53

Q: For SSQMGAQSSGKILLCPLCQEEEQA, which protein stability index is on record?
A: 3.55

Q: Which protein stability index does the source give for WSQMGAQSSGKILLCPLCQEEEQA here?
A: 4.43

Q: For YSQMGAQSSGKILLCPLCQEEEQA, which protein stability index is on record?
A: 2.65

Q: Which protein stability index does the source give for MSQMGAQSSGKILLCPLCQEEEQA here?
A: 3.52

Q: For KSQMGAQSSGKILLCPLCQEEEQA, which protein stability index is on record?
A: 3.7

Q: Which protein stability index does the source give for HSQMGAQSSGKILLCPLCQEEEQA here?
A: 3.94

Q: With ESQMGAQSSGKILLCPLCQEEEQA as the variant, how does the protein stability index read?
A: 3.99

Q: With QSQMGAQSSGKILLCPLCQEEEQA as the variant, how does the protein stability index read?
A: 4.4

Q: Which protein stability index does the source give for RSQMGAQSSGKILLCPLCQEEEQA here?
A: 3.77

Q: Which protein stability index does the source give for LSQMGAQSSGKILLCPLCQEEVQA here?
A: 4.13

Q: For LSQMGAQSSGKILLCPLCQEEWQA, which protein stability index is on record?
A: 2

Q: For LSQMGAQSSGKILLCPLCQEENQA, which protein stability index is on record?
A: 4.15

Q: For LSQMGAQSSGKILLCPLCQEETQA, which protein stability index is on record?
A: 3.46

Q: Which protein stability index does the source give for LSQMGAQSSGKILLCPLCQEEKQA here?
A: 3.74

Q: Which protein stability index does the source give for LSQMGAQSSGKILLCPLCQEEPQA here?
A: 2.56

Q: With LSQMGAQSSGKILLCPLCQEEFQA as the variant, how does the protein stability index read?
A: 2.6

Q: With LSQMGAQSSGKILLCPLCQEECQA as the variant, how does the protein stability index read?
A: 2.82

Q: Which protein stability index does the source give for LYQMGAQSSGKILLCPLCQEEEQA here?
A: 3.63

Q: Which protein stability index does the source give for LPQMGAQSSGKILLCPLCQEEEQA here?
A: 4.26

Q: For LTQMGAQSSGKILLCPLCQEEEQA, which protein stability index is on record?
A: 3.71

Q: For LRQMGAQSSGKILLCPLCQEEEQA, which protein stability index is on record?
A: 3.7

Q: With LQQMGAQSSGKILLCPLCQEEEQA as the variant, how does the protein stability index read?
A: 4.06

Q: Which protein stability index does the source give for LSQMGAQSSGEILLCPLCQEEEQA here?
A: 3.11

Q: Which protein stability index does the source give for LSQMGAQSSGTILLCPLCQEEEQA here?
A: 3

Q: For LSQMGAQSSGHILLCPLCQEEEQA, which protein stability index is on record?
A: 2.72

Q: With LSQMGAQSSGDILLCPLCQEEEQA as the variant, how does the protein stability index read?
A: 2.81

Q: With LSQMGAQSSGIILLCPLCQEEEQA as the variant, how does the protein stability index read?
A: 3.03

Q: With LSQMGAQSSGYILLCPLCQEEEQA as the variant, how does the protein stability index read?
A: 2.64

Q: With LSQMGAQSSGPILLCPLCQEEEQA as the variant, how does the protein stability index read?
A: 3.6

Q: For LSQMGAQSSGLILLCPLCQEEEQA, which protein stability index is on record?
A: 1.76

Q: Which protein stability index does the source give for LSQMGAQSSGNILLCPLCQEEEQA here?
A: 4.26

Q: For LSQMGAQSSGSILLCPLCQEEEQA, which protein stability index is on record?
A: 3.79

Q: Which protein stability index does the source give for LSQMGAQSSGRILLCPLCQEEEQA here?
A: 3.03

Q: For LSQMGAQSSGKILLCFLCQEEEQA, which protein stability index is on record?
A: 4.36

Q: For LSQMGAQSSGKILLCALCQEEEQA, which protein stability index is on record?
A: 2.92

Q: For LSQMGAQSSGKILLCDLCQEEEQA, which protein stability index is on record?
A: 4.05

Q: Which protein stability index does the source give for LSQMGAQSSGKILLCTLCQEEEQA here?
A: 3.91

Q: With LSQMGAQSSGKILLCNLCQEEEQA as the variant, how does the protein stability index read?
A: 4.1

Q: With LSQMGAQSSGKILLCQLCQEEEQA as the variant, how does the protein stability index read?
A: 4.22

Q: Which protein stability index does the source give for LSQMGAQSSGKILLCWLCQEEEQA here?
A: 2.9

Q: With LSQSGAQSSGKILLCPLCQEEEQA as the variant, how does the protein stability index read?
A: 4.08

Q: For LSQNGAQSSGKILLCPLCQEEEQA, which protein stability index is on record?
A: 3.6

Q: Which protein stability index does the source give for LSQAGAQSSGKILLCPLCQEEEQA here?
A: 4.66

Q: For LSQGGAQSSGKILLCPLCQEEEQA, which protein stability index is on record?
A: 3.2

Q: With LSQPGAQSSGKILLCPLCQEEEQA as the variant, how does the protein stability index read?
A: 4.94

Q: Which protein stability index does the source give for LSQMGAQSSGKILVCPLCQEEEQA here?
A: 2.99

Q: Which protein stability index does the source give for LSQMGAQSSGKILICPLCQEEEQA here?
A: 3.91

Q: Which protein stability index does the source give for LSQMGAQSSGKILNCPLCQEEEQA here?
A: 3.56

Q: For LSQMGAQSSGKILYCPLCQEEEQA, which protein stability index is on record?
A: 4.23

Q: For LSQMGAQSSGKILMCPLCQEEEQA, which protein stability index is on record?
A: 3.98

Q: For LSQMGAQSSGKILLLPLCQEEEQA, which protein stability index is on record?
A: 3.9

Q: With LSQMGAQSSGKILLRPLCQEEEQA as the variant, how does the protein stability index read?
A: 4.43

Q: With LSQMGAQSSGKILLMPLCQEEEQA as the variant, how does the protein stability index read?
A: 4.64

Q: For LSQMGAQSSGKILLSPLCQEEEQA, which protein stability index is on record?
A: 4.98

Q: Which protein stability index does the source give for LSQMGAQSSGKILLTPLCQEEEQA here?
A: 5.05

Q: With LSQMGAQSSGKILLDPLCQEEEQA as the variant, how does the protein stability index read?
A: 5.58

Q: For LSQMGAQSSGKILLHPLCQEEEQA, which protein stability index is on record?
A: 4.74

Q: Which protein stability index does the source give for LSQMGAQSSGKILLIPLCQEEEQA here?
A: 3.77

Q: Which protein stability index does the source give for LSQMGAQSSGKILLNPLCQEEEQA here?
A: 5.22
